The values that follow come from the supplement of paper PMC12855868.

Sequences and labels used below:
B1: library; numbered along this chain (parent)
chain: MAAAGGARLLRAASAVLGGPAGRWLHHAGSRAGSSGLLRNRGPGGSAEASRSLSVSARARSSSEDKITVHFINRDGETLTTKGKVGDSLLDVVVENNLDIDGFGACEGTLACSTCHLIFEDHIYEKLDAITDEENDMLDLAYGLTDRSRLGCQICLTKSMDNMTVRVPETVADARQSIDVGKTS

Variants of B1 are the subject of this data set. Nature of the data set: scaled log2 fold change in cell abundance, elesclomol vs control (0 = silent mean, 1 = nonsense mean) (scaled log2 ratio); higher = higher viability under elesclomol (loss of FDX1 cuproptosis function). The settings on record: glucose 10 mM.
Where [1] appears, read: with ABC1 FDX1 KO, elesclomol 5 nM, 14 days.
Setting [2] is: with HEK293T FDX1 KO, elesclomol 40 nM, 11 days.
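Also: variant abundance is its share of total variant reads in each endpoint sample, from next-generation sequencing of the integrated ORF PCR-amplified out of genomic DNA.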

In the case of N96L, the “scaled log2 fold change” value runs as follows: under setting [1], 0.0905; under setting [2], 0.033.

Regarding N96K, the “scaled log2 fold change” value under setting [1] was -0.0525 and the “scaled log2 fold change” value under setting [2] was -0.121.

As for N96T, the “scaled log2 fold change” value by setting is: under setting [1], -0.0877; under setting [2], -0.163.

N96I: the “scaled log2 fold change” value is, setting by setting: under setting [1], 0.329; under setting [2], 0.221.

Turning to V92P, the “scaled log2 fold change” value is, setting by setting: under setting [1], 0.511; under setting [2], 0.131.

Take V92C: the “scaled log2 fold change” value runs as follows: under setting [1], 0.195; under setting [2], -0.64.

In the case of V92L, the “scaled log2 fold change” value under setting [1] came to 0.019.

V92S: the “scaled log2 fold change” value was 0.501 under setting [1] and -0.213 under setting [2].

As to V92E, the “scaled log2 fold change” value runs as follows: under setting [1], 0.961; under setting [2], 0.463.

Regarding V92N, the “scaled log2 fold change” value was 0.121 under setting [1] and 0.904 under setting [2].

For the variant V92W, the “scaled log2 fold change” value is, setting by setting: under setting [1], 0.354; under setting [2], -0.298.

In the case of V92G, the “scaled log2 fold change” value reads like this: under setting [1], 0.459; under setting [2], 0.237.

Take V92M: the “scaled log2 fold change” value reads like this: under setting [1], -0.0956; under setting [2], 0.391.

Turning to V92F, the “scaled log2 fold change” value was determined as 0.0178 under setting [1] and 0.0606 under setting [2].

V92Q: the “scaled log2 fold change” value is -1.03 under setting [1] and 0.183 under setting [2].

As to V92T, the “scaled log2 fold change” value under setting [1] was -0.145.

Turning to V92I, the “scaled log2 fold change” value by setting is: under setting [1], -0.0115; under setting [2], 0.336.

Consider V92R, for which the “scaled log2 fold change” value runs as follows: under setting [1], 1.1; under setting [2], 0.379.

For the variant V92Y, the “scaled log2 fold change” value under setting [1] was found to be 0.0368 and the “scaled log2 fold change” value under setting [2] was -0.087.

In the case of V92H, the “scaled log2 fold change” value runs as follows: under setting [1], 0.295; under setting [2], 0.314.

As for V92A, the “scaled log2 fold change” value was 0.494 under setting [1] and -0.354 under setting [2].

As to V92K, the “scaled log2 fold change” value by setting is: under setting [1], 0.913; under setting [2], 0.724.

Regarding V92D, the “scaled log2 fold change” value under setting [1] is 1.07 and the “scaled log2 fold change” value under setting [2] was 1.13.

On to K84W, for which the “scaled log2 fold change” value runs as follows: under setting [1], 0.191; under setting [2], -0.16.

Consider K84Y, for which the “scaled log2 fold change” value under setting [1] was -0.449 and the “scaled log2 fold change” value under setting [2] is 0.782.

In the case of K84V, the “scaled log2 fold change” value under setting [1] turned out to be 0.289 and the “scaled log2 fold change” value under setting [2] was -0.902.

With K84R, the “scaled log2 fold change” value is -0.138 under setting [1] and -0.784 under setting [2].

Turning to K84S, the “scaled log2 fold change” value under setting [1] was 0.112 and the “scaled log2 fold change” value under setting [2] is 0.32.

As for K84T, the “scaled log2 fold change” value is, setting by setting: under setting [1], -0.0915; under setting [2], -0.906.

For N97M, the “scaled log2 fold change” value under setting [1] turned out to be 0.195 and the “scaled log2 fold change” value under setting [2] is -0.11.

For the variant N97R, under setting [1], the “scaled log2 fold change” value is -0.00904.

In the case of N97F, the “scaled log2 fold change” value by setting is: under setting [1], 0.103; under setting [2], -0.943.

In the case of N97P, the “scaled log2 fold change” value under setting [1] is -0.344 and the “scaled log2 fold change” value under setting [2] was -0.674.

For N97Q, the “scaled log2 fold change” value was -0.273 under setting [1] and 0.204 under setting [2].

Take N97I: the “scaled log2 fold change” value reads like this: under setting [1], 0.125; under setting [2], -0.93.

As for N97L, the “scaled log2 fold change” value under setting [1] is -0.931.

With N97D, the “scaled log2 fold change” value was 0.0523 under setting [1] and -0.622 under setting [2].

As for N97K, the “scaled log2 fold change” value under setting [1] amounted to 0.149 and the “scaled log2 fold change” value under setting [2] stood at 0.739.

On to N97E, for which the “scaled log2 fold change” value by setting is: under setting [1], -0.211; under setting [2], -1.28.

Turning to N97C, the “scaled log2 fold change” value by setting is: under setting [1], -0.382; under setting [2], -0.308.

On to N97S, for which the “scaled log2 fold change” value by setting is: under setting [1], -0.104; under setting [2], 0.254.

Take N97A: the “scaled log2 fold change” value reads like this: under setting [1], 0.142; under setting [2], 0.975.

On to N97H, for which the “scaled log2 fold change” value was -0.355 under setting [1] and -0.619 under setting [2].

Regarding N97G, the “scaled log2 fold change” value under setting [1] worked out at 0.132 and the “scaled log2 fold change” value under setting [2] is -0.242.

V85C: the “scaled log2 fold change” value was -0.197 under setting [1] and -0.0853 under setting [2].

In the case of V85H, the “scaled log2 fold change” value is -0.166 under setting [1] and -0.307 under setting [2].

For V85D, the “scaled log2 fold change” value is 0.12 under setting [1] and -0.189 under setting [2].

As for V85M, the “scaled log2 fold change” value is 0.00542 under setting [1] and -0.0343 under setting [2].

Take V85R: the “scaled log2 fold change” value reads like this: under setting [1], 0.266; under setting [2], -0.792.

For the variant V85K, the “scaled log2 fold change” value reads like this: under setting [1], 0.192; under setting [2], -0.177.

As for V85I, the “scaled log2 fold change” value was -0.161 under setting [1] and -0.597 under setting [2].

On to V85A, for which the “scaled log2 fold change” value reads like this: under setting [1], 0.0788; under setting [2], -0.325.

V85T: the “scaled log2 fold change” value is, setting by setting: under setting [1], -0.279; under setting [2], -0.55.

For V85W, the “scaled log2 fold change” value runs as follows: under setting [1], 0.119; under setting [2], 0.889.

For the variant V85G, the “scaled log2 fold change” value amounted to 0.265 under setting [1] and 0.288 under setting [2].

On to V85Q, for which the “scaled log2 fold change” value is, setting by setting: under setting [1], 0.0746; under setting [2], -0.0938.

In the case of V85S, the “scaled log2 fold change” value under setting [1] was 0.131 and the “scaled log2 fold change” value under setting [2] was -0.121.

For the variant V85L, the “scaled log2 fold change” value was -0.101 under setting [1] and 0.47 under setting [2].
